Measured values from article doi:10.1101/2020.12.02.408153 (bioRxiv, 2020).

Target: SARS-CoV-2 open reading frame (ORF) 8 (SARS-CoV-2, UniProt P0DTC8 16-121)
Assay: SPR

SARS-CoV-2 open reading frame (ORF) 8, sequence (P0DTC8 16-121): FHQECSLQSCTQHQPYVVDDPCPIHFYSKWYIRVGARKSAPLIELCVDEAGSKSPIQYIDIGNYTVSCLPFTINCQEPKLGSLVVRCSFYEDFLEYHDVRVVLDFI

Binder: LLGDFFRKSKEKIGKEFKRIVQRIKDFLRNLVPRTES [LL-37]
- Kd: 290 nM
